B1: Bilayer HEX-D3-ASA (designed binder)
chain: DLGKKLLQAARAGQLDEVRELLKAGADVNAKDQEGITPLHVAAHQGHLEIVEVLLKAGADVNAKDVWGRTPLHLAAWRGHLEIVEVLLKAGADVNAKDHAGATPLHAAALSGHLEIVEVLLKAGADVNAQDKSGKTPADLAARAGHQDIAEVLQKAAGGGSGGGSGGGSGGGSDLGKKLLEAARAGQDDEVRELLKAGADVNAKDYFSHTPLHLAARNGHLKIVEVLLKAGADVNAKDFAGKTPLHLAANEGHLEIVEVLLKAGADVNAQDIFGKTPADIAADAGHEDIAEVLQKAAGGGSGGGSGGGSGGGSGELKAIAQELKAIAKELKAIAWELKAIAQGAGGGGSGGGSGGGSGGGSDLGKKLLQAARAGQLDEVRELLKAGADVNAKDQEGITPLHVAAHQGHLEIVEVLLKAGADVNAKDVWGRTPLHLAAWRGHLEIVEVLLKAGADVNAKDHAGATPLHAAALSGHLEIVEVLLKAGADVNAQDKSGKTPADLAARAGHQDIAEVLQKAAGGGSGGGSGGGSGGGSDLGKKLLQAARAGQLDEVRELLKAGADVNAKDQEGITPLHVAAHQGHLEIVEVLLKAGADVNAKDVWGRTPLHLAAWRGHLEIVEVLLKAGADVNAKDHAGATPLHAAALSGHLEIVEVLLKAGADVNAQDKSGKTPADLAARAGHQDIAEVLQKAA
B2: HEX-D3-ASA (designed binder)
chain: DLGKKLLEAARAGQDDEVRELLKAGADVNAKDYFSHTPLHLAARNGHLKIVEVLLKAGADVNAKDFAGKTPLHLAANEGHLEIVEVLLKAGADVNAQDIFGKTPADIAADAGHEDIAEVLQKAAGGGSGGGSGGGSGGGSGELKAIAQELKAIAKELKAIAWELKAIAQGAGGGGSGGGSGGGSGGGSDLGKKLLQAARAGQLDEVRELLKAGADVNAKDQEGITPLHVAAHQGHLEIVEVLLKAGADVNAKDVWGRTPLHLAAWRGHLEIVEVLLKAGADVNAKDHAGATPLHAAALSGHLEIVEVLLKAGADVNAQDKSGKTPADLAARAGHQDIAEVLQKAA

Tests used:
mouse serum albumin = mouse serum albumin (mouse, UniProt P07724 25-608); test: ELISA
Sequence of mouse serum albumin (P07724 25-608): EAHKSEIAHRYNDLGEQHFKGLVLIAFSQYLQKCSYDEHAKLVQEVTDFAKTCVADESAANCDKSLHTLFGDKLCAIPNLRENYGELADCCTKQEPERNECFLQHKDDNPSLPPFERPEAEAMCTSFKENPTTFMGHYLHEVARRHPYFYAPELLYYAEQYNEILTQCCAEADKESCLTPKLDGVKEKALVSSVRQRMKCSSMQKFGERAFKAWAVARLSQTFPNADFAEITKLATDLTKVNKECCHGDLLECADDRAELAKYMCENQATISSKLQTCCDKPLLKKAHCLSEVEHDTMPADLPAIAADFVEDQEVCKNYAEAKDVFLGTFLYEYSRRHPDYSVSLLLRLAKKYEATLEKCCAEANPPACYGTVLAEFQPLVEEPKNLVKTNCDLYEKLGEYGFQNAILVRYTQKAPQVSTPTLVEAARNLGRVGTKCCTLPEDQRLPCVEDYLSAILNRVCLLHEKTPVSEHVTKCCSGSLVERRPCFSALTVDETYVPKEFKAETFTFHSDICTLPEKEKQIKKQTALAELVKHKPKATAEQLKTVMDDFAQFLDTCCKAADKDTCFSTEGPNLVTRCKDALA

human serum albumin = human serum albumin (human, UniProt P02768 25-609); test: ELISA

| Binder | Kd (mouse serum albumin) [nM] | Kd (human serum albumin) [nM] |
| --- | --- | --- |
| B1 | 124 | 7.9 |
| B2 | 24.4 | 2.82 |
